The values below come from PMC6265470, “Structural, functional and biological insights into the role of Mycobacterium tuberculosis VapBC11 toxin–antitoxin system: targeting a tRNase to tackle mycobacterial adaptation” (Nucleic Acids Research, 2018).

The target of series [1] is VapC11 as co-expressed and co-purified with VapB11 in the VapBC11 complex (Mycobacterium tuberculosis) (UniProt P9WFA4). The experiment in a line: […] (pH 8.0), 150 mM NaCl, […].
For series [2], the system named is VapC11 D5A (Mycobacterium tuberculosis). The experiment in a line: BLI. The note with it: BLI: 20 mM HEPES pH 7.5, 150 mM NaCl, 25 C.

As for “VapB11 (residues 6-72) as co-expressed and co-purified with VapC11 in the VapBC11 complex (from UniProt P9WLU2 6-72) (domain or fragment)”, in series [1], the percent of the population as heterooctamer is 80%, the stoichiometry N (VapB11 per VapC11 (2:4)) is 0.5 and the stoichiometry N (VapB11 per VapC11 (4:4)) came to 1.

On to tRNA-LeuCAG (leuT), for which, in series [2], the equilibrium dissociation constant (Kd) (in general, the free concentration of one partner at which half of the binding sites on the other are occupied at equilibrium, for simple one-to-one binding) was 0.5 nM.
